“And” between values parts separate entries of the source, which are not always exact repeats. Equal entries are not always repeated.
Tested on: Bacillus subtilis DB104 (SP-AmyQ fusion secretion)
Assay: AmyQ secretion efficiency, weighted average sort bin (1 = best secretion, 10 = worst) (bin number (weighted average, 1-10)); higher = lower secretion efficiency
Summary of the method: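 Occupied alginate beads were sorted by large-particle flow cytometry into 10 equally populated bins according to green/red fluorescence ratio. Each bead (~65 nL) held fluorescein-starch and about 0.3 cells of a B. subtilis DB104 library expressing mature AmyQ fused to designed signal peptides from the amyE locus, and beads were grown about 13 h at room temperature and stained with nile red before sorting. Bin amplicons were Illumina-sequenced, and the secretion score is the read-frequency-weighted average bin number, normalised to beads per bin, excluding low-abundance sequences.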

| Sequence | AmyQ secretion efficiency |
| --- | --- |
| MKKGYSTTSTGVLVTTVFLVKQQESVAQAKQL | 7.95 |
| MKKIAGVLTVAAAAMTAKMYATAKGN | 7.41 |
| MKKIGLLFMLCLAALFTIGFPAQQADAAED | 2.02 |
| MKKIGLLFMLCLAALFTIGFPAQQADAAPR | 1.25 |
| MKKIGLLFMLCLAALFTIGFPAQQADAEED | 2.27 |
| MKKIGLLFMLCLAALFTIGFPAQQLDAAEA | 2.04 |
| MKKIGLLFMLCLAALKKRRFPAQQADAAEA | 7.17 |
| MKKIGLLFMLCLAALRRRKRKRQQADAAEA | 6.59 |
| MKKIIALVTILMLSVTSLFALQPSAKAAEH | 2.46 |
| MKKIITATTAVVLGSTLFAGAASAQSI | 2.35 |
| MKKIKKRKFMFGLVMGFSQFQPSTVFAADK | 7.57 |
| MKKIMIFLTSFMLLAMTGQTALAKDV | 3.4 |
| MKKIMSAFVGMVLLTIFCFSPQASAADD | 3.32 |
| MKKIMSAFVGMVLLTIFCFSPQASAAYD | 4.89 and 4.8 |
| MKKIMSAFVGMVLLTIFCFSPQASAEED | 2.74 |
| MKKIMSAFVGMVLLTIFCFSPQASARRR | 6.47 |
| MKKIMSAFVGMVLLTIFCKKRKRRASAAYD | 7.21 |
| MKKIMSAFVGMVLLTIFCRRRQASAAYD | 7.16 |
| MKKIMSAFVGMVLLTIFCVSTLTFSPQASAAYD | 4.76 |
| MKKIMSARKRRRKLTIFCFSPQASAAYD | 6.63 |
| MKKIMSARRRRVLLTIFCFSPQASAAYD | 7.27 |
| MKKIMSGKKGMVLLTIFCFSPQASAAYD | 5.2 |
| MKKIRRRKRKCLAALFTIGFPAQQADAAEA | 7.19 |
| MKKISSVMLATALFLGLTPAGANAADL | 3.26 |
| MKKIVIILFMFILVMSSGFSQFQPSTVFAADK | 3.08 |
| MKKIVSILFMFGGFSQFQPSTVFAADK | 4.29 |

| Sequence | AmyQ secretion efficiency |
| --- | --- |
| MKKIVSILFMFGLVMFFFTFTAIGVFAADK | 4.52 |
| MKKIVSILFMFGLVMGFSQFQPSTGFAADK | 3.91 |
| MKKIVSILFMFGLVMGFSQFQPSTMFAADK | 2.83 |
| MKKIVSILFMFGLVMGFSQFQPSTVFAADK | 3.41 and 2.54 |
| MKKIVSILFMFGLVMGFSQFQPSTVFAAED | 2.13 |
| MKKIVSILFMFGLVMGFSQFQPSTVFAAKK | 2.86 |
| MKKIVSILFMFGLVMGFSQFQPSTVFAASD | 1.84 |
| MKKIVSILFMFGLVMGFSQFQPSTVFAASP | 1.65 |
| MKKIVSILFMFGLVMGFSQFQPSTVFADED | 4.03 |
| MKKIVSILFMFGLVMGFSQFQPSTVFARRK | 5.68 |
| MKKIVSILFMFGLVMGFSQFQPSTVFGADK | 4.23 |
| MKKIVSILFMFGLVMGFSSFFPSTVFAADK | 3.12 |
| MKKIVSILFMFGLVMKKKQFQPSTVFAADK | 7.82 |
| MKKIVSILFMFGLVMRRKRKKPSTVFAADK | 7.34 |
| MKKIVSILFMFGLVMSIISLGFSQFQPSTVFAADK | 2.96 |
| MKKIWIGMLAAAMVPKVSLADAA | 5.25 |
| MKKIWIGMLAAAVLLLITISVTAAMVPKVSLADAA | 5 |
| MKKIWIGMLAAAVLLLMVPKVDLADAA | 4.2 |
| MKKIWIGMLAAAVLLLMVPKVGLADAA | 3.24 |
| MKKIWIGMLAAAVLLLMVPKVMLADAA | 4.26 |
| MKKIWIGMLAAAVLLLMVPKVSLAAAD | 5.09 |
| MKKIWIGMLAAAVLLLMVPKVSLADAA | 3.23 and 2.34 and 3.08 |
| MKKIWIGMLAAAVLLLMVPKVSLAEDD | 4.09 |
| MKKIWIGMLAAAVLLLMVPKVSLRDAA | 4.91 |
| MKKIWIGMLAAAVLLLMVPKVSPAVPSGFSLADAA | 6.35 |
| MKKIWIGMLAAAVLLLMVPKVVLADAA | 3.66 |

| Sequence | AmyQ secretion efficiency |
| --- | --- |
| MKKIWIGMLAAAVLLLRKPKVSLADAA | 7.91 |
| MKKIWIGMLAAAVLLLRKRKKKSLADAA | 6.58 |
| MKKIWIGMLAAAVLLLSVFAMVPKVSLADAA | 4.61 |
| MKKIWIGMLAAAVLLLTKPKESLADAA | 3.56 |
| MKKKIIRFLLVSFVLFFALSTGITGVQAAPA | 2.57 |
| MKKKIRRKKKKSAVVGSSMAAAPAEAKTI | 7.24 |
| MKKKIRRRKAVSAVVGSSMAAAPAEAKTI | 5.54 |
| MKKKIVAGLAVSAGSSMAAAPAEAKTI | 7.16 |
| MKKKIVAGLAVSAVVDEDEEAAPAEAKTI | 5.93 |
| MKKKIVAGLAVSAVVGAEAKTI | 8.76 |
| MKKKIVAGLAVSAVVGSSMAAEAKTI | 5.65 |
| MKKKIVAGLAVSAVVIVAMAAAIAEAKTI | 6.55 |
| MKKKIVAGLAVSAVVQDDPSAAPAEAKTI | 7.07 |
| MKKKIVAGLAVSAVVRRRRAAAPAEAKTI | 7.4 |
| MKKKIVALLAVIAVVSGSSMAAAPAEAKTI | 3.11 |
| MKKKKAAAVLLSLGLVFGFSYGAGHVAEAKTK | 1.65 |
| MKKKKAGLFLAAAVLLCLMVPQQIQGASS | 4.01 |
| MKKKKKRIITATTAVVLGSTLFAGAASAQSI | 1.46 |
| MKKKKKRVGLLAGCLAAGGFSYNAFATEN | 6.9 |
| MKKKKMLSMLTVMIASLFIFSSQALAVQY | 3.15 |
| MKKKKRKFVLIVCIIFTSALFPTFSSVTAAQG | 1.03 |
| MKKKKRRIVSILFMFGLVMGFSQFQPSTVFAADK | 3.29 |
| MKKKKRYSQRFLVALTMCGGLFVTPAKAVKT | 6.94 |
| MKKKKYVVLVLSIAGIGGFSVHAASS | 6.5 |
| MKKKLAAGLTASAIVGTTLVDEPAEAATI | 5.66 |
| MKKKLAAGLTASAIVGTTLVEDEEDAEAATI | 6.91 |

| Sequence | AmyQ secretion efficiency |
| --- | --- |
| MKKKLAAGLTASAIVGTTLVGGGAEAATI | 4.73 |
| MKKKLAAGLTASAIVGTTLVIVTPAEAATI | 3.35 |
| MKKKLAAGLTASAIVGTTLVRKKKAEAATI | 8.06 |
| MKKKLAAGLTASAIVGTTLVTTISAVTPAEAATI | 2.98 |
| MKKKLAAGLTASAIVGTTLVVAEAATI | 5.78 |
| MKKKLAAGLTASAIVGTTLVVFTAEAATI | 5.8 |
| MKKKLAAGLTASAIVGTTLVVTPAEAADE | 3.03 |
| MKKKLAAGLTASAIVGTTLVVTPAEAARK | 3.53 |
| MKKKLAAGLTASAIVGTTLVVTPAEAATD | 2.88 |
| MKKKLAAGLTASAIVGTTLVVTPAEAATR | 2.36 |
| MKKKLAAGLTASAIVGTTLVVTPAEADDD | 5.01 |
| MKKKLAAGLTASAIVGTTLVVTPAEAKRK | 6.02 |
| MKKKLAAGLTASAIVGTTLVVTPAECATI | 4.47 |
| MKKKLAAGLTASAIVGTTLVVTPAEDATI | 6.33 |
| MKKKLAAGLTASAIVGTTLVVTPAEEATI | 6.94 |
| MKKKLAAGLTASAIVGTTLVVTPAEGATI | 3.33 |
| MKKKLAAGLTASAIVGTTLVVTPAEKATI | 7.23 |
| MKKKLAAGLTASAIVGTTLVVTPAELATI | 5.54 |
| MKKKLAAGLTASAIVGTTLVVTPAEPATI | 6.62 |
| MKKKLAAGLTASAIVGTTLVVTPAERATI | 5.86 |
| MKKKLAAGLTASAIVGTTLVVTPAESATI | 3.72 |
| MKKKLAAGLTASAIVGTTLVVTPAETATI | 5.92 |
| MKKKLAAGLTASAIVGTTLVVTPAEVATI | 6.56 |
| MKKKLAAGLTASAIVGTTLVVTPAEWATI | 7.78 |
| MKKKLAAGLTASAIVGTTLVVTPAEYATI | 6.06 |
| MKKKLAAGLTASAIVGTTLVVTPCEAATI | 1.75 |

| Sequence | AmyQ secretion efficiency |
| --- | --- |
| MKKKLAAGLTASAIVGTTLVVTPDEAATI | 5.54 |
| MKKKLAAGLTASAIVGTTLVVTPEEAATI | 5.83 |
| MKKKLAAGLTASAIVGTTLVVTPFEAATI | 5.7 |
| MKKKLAAGLTASAIVGTTLVVTPIEAATI | 2.11 |
| MKKKLAAGLTASAIVGTTLVVTPKEAATI | 4.56 |
| MKKKLAAGLTASAIVGTTLVVTPLEAATI | 3.17 |
| MKKKLAAGLTASAIVGTTLVVTPNEAATI | 6.96 |
| MKKKLAAGLTASAIVGTTLVVTPPEAATI | 5.33 |
| MKKKLAAGLTASAIVGTTLVVTPPTAPGGAEAATI | 6.5 |
| MKKKLAAGLTASAIVGTTLVVTPQEAATI | 5.9 |
| MKKKLAAGLTASAIVGTTLVVTPREAATI | 6.83 |
| MKKKLAAGLTASAIVGTTLVVTPSEAATI | 3.77 |
| MKKKLAAGLTASAIVGTTLVVTPTAAEAATI | 2.99 |
| MKKKLAAGLTASAIVGTTLVVTPTEAATI | 2.75 |
| MKKKLAAGLTASAIVGTTLVVTPVEAATI | 2.24 |
| MKKKLAAGLTASAIVGTTLVVTPWEAATI | 6.58 |
| MKKKLAAGLTASAIVGTTLVVTPYEAATI | 5.36 |
| MKKKLAAGLTASAIVGTTLVVVFAEAATI | 6.57 |
| MKKKLAAGLTASAIVGTVTPAEAATI | 5.84 |
| MKKKLAAGLTASAVTPAEAATI | 6.26 |
| MKKKLKKGLTASAIVGTTLVVTPAEAATI | 5.93 |
| MKKKLKRKKRRSAIVGTTLVVTPAEAATI | 6.61 |
| MKKKMLNLFLAAGLTASAIVGTTLVVTPAEAATI | 4.26 |
| MKKKNSISSLNMLAAGLTASAIVGTTLVVTPAEAATI | 2.17 |

— the supplement of paper PMC9942255
